Measurements as given in PMC3903462 (Biochemistry, 2013).

Target: the molecule itself
Assay: SEC-MALS

B1: HsaD from Mycobacterium tuberculosis H37Rv (enzyme)
chain: MTATEELTFESTSRFAEVDVDGPLKLHYHEAGVGNDQTVVLLHGGGPGAASWTNFSRNIAVLARHFHVLAVDQPGYGHSDKRAEHGQFNRYAAMALKGLFDQLGLGRVPLVGNSLGGGTAVRFALDYPARAGRLVLMGPGGLSINLFAPDPTEGVKRLSKFSVAPTRENLEAFLRVMVYDKNLITPELVDQRFALASTPESLTATRAMGKSFAGADFEAGMMWREVYRLRQPVLLIWGREDRVNPLDGALVALKTIPRAQLHVFGQCGHWVQVEKFDEFNKLTIEFLGGGR
For B1, the “stoichiometry N” value was 4.
